Source: PMC8035640

T1: PilR-His (Lysobacter enzymogenes OH11, UniProt A0A5P2TY02 1-471)
T1 sequence: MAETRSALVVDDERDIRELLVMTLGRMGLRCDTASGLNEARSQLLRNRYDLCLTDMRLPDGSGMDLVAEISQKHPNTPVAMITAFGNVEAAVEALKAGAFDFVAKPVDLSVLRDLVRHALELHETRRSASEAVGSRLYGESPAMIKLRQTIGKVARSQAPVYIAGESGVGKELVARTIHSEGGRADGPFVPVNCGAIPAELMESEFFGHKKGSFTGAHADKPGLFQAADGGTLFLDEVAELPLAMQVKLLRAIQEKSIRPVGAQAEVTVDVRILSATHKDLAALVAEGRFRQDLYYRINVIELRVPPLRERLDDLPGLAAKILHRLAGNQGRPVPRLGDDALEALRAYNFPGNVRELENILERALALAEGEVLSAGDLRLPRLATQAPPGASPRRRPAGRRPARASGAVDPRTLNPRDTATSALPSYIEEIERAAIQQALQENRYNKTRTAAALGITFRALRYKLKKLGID


Key:
PilR-His = target: T1, PilR-His; test: EMSA
[1] = target: LchD^GGDEV-His, soluble cytoplasmic fragment of LchD (Lysobacter enzymogenes OH11); test: MST

Kd [1]	Binder	binding result (PilR-His)
–	PLchD-2c (dsDNA) DNA 1: TGACCGGAAGGGGCATGGGGACACCCTGGCGTGGAAGCTGGCGCGGCTGG DNA 2: CCAGCCGCGCCAGCTTCCACGCCAGGGTGTCCCCATGCCCCTTCCGGTCA	no binding
–	PLchD-2b (dsDNA) DNA 1: CCTGCACCGGAATGCAGCCCCCTTGGGCTATGCTCGGCACAGCAGACTGG DNA 2: CCAGTCTGCTGTGCCGAGCATAGCCCAAGGGGGCTGCATTCCGGTGCAGG	no binding
490 nM	Clp-glutathione S-transferase (GST) (natural protein) MSANPVAPLTALRRTNSPLLPDGATIERFLAHCHRRRYPSRTDVFRPGDPASTLYYVVSGSVSIITEEEDGRELVLGYFGPGEFVGELGLFIESDHREVILRTRSTCELAEIGHERLYDLLLTRLSLDAPKLLYAIGAQISRRLLDTSRKAGRLAFLDVTDRIVRALHDLAKEPEAMSHPQGTQLRVSRQELSRLVGCSREMAGRVLKKLQADGKLHARGKTVVLYGTR	–
